Patent publication US20250171562A1 (ALK ABELL, published 2025)

Biological target: T1, recombinant human IgE (human, UniProt P01854-1 1-428)
T1 construct: made in-house (ALK); preloaded on immobilised FcεRIα in the displacement ELISA
Assay: IgE-FcεRIα displacement ELISA
Outline: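 sdAbs at pM–μM were incubated 1 h on preformed complexes of 13 ng/ml recombinant human IgE with avi-tag-biotinylated human FcεRIα captured on streptavidin.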

T1 sequence (P01854 other isoform, or with tags, fused parts or gaps): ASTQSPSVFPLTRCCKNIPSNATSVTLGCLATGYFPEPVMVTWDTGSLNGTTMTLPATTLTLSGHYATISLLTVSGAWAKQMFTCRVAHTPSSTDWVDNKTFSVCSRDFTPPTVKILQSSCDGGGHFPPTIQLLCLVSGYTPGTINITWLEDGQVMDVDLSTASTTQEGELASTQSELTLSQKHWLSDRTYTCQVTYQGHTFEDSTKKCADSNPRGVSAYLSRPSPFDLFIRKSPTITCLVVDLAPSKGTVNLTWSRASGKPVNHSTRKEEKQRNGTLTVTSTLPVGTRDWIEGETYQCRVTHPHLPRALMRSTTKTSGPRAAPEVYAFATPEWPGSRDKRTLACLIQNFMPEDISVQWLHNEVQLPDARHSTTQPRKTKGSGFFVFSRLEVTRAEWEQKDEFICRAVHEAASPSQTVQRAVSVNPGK

Row | Binder | EC50 [nM] | Max effect [%]
1 | CIgG4B1A2(RS) (Fc fusion) chain 1: GPPCPPCPAPEFLGGPSVFLFPPKPKDTLMISRTPEVTCVVVDVSQEDPEVQFNWYVDGVEVHNAKTKPREEQFNSTYRVVSVLTVLHQDWLNGKEYKCKVSNKGLPSSIEKTISKAKGQPREPQVYTLPPCQEEMTKNQVSLWCLVKGFYPSDIAVEWESNGQPENNYKTTPPVLDSDGSFFLYSRLTVDKSRWQEGNVFSCSVMHEALHNHYTQKSLSLSLGKRSQVQLQESGGGLVQTGGSLRLSCAVHGRTFSNTGMGWFRQAPGNERQFVAIISPSGTSTYYADSVKGRFTISRDPAKNTVYLQMNSLKMDDTAVYYCAASYGSNWSTLRHQRRNEYDAWGQGTQVAVS chain 2: GPPCPPCPAPEFLGGPSVFLFPPKPKDTLMISRTPEVTCVVVDVSQEDPEVQFNWYVDGVEVHNAKTKPREEQFNSTYRVVSVLTVLHQDWLNGKEYKCKVSNKGLPSSIEKTISKAKGQPREPQVCTLPPSQEEMTKNQVSLSCAVKGFYPSDIAVEWESNGQPENNYKTTPPVLDSDGSFFLVSRLTVDKSRWQEGNVFSCSVMHEALHNHYTQKSLSLSLGKRSEVQLLESGGGLVQPGGSLRLSCAASGFRFGNYDMAWVRQAPGKRYEWVSSIDTGGDITHYADSVKGRFTISRDNAKNTLYLQMNSLRPEDTAEYWCATDEEYALGPNEFDYYGQGTLVTVS | 5 | > 95
2 | CIgG4B1A2(G4S)2 (Fc fusion) chain 1: GPPCPPCPAPEFLGGPSVFLFPPKPKDTLMISRTPEVTCVVVDVSQEDPEVQFNWYVDGVEVHNAKTKPREEQFNSTYRVVSVLTVLHQDWLNGKEYKCKVSNKGLPSSIEKTISKAKGQPREPQVYTLPPCQEEMTKNQVSLWCLVKGFYPSDIAVEWESNGQPENNYKTTPPVLDSDGSFFLYSRLTVDKSRWQEGNVFSCSVMHEALHNHYTQKSLSLSLGKGGGGSGGGGSQVQLQESGGGLVQTGGSLRLSCAVHGRTFSNTGMGWFRQAPGNERQFVAIISPSGTSTYYADSVKGRFTISRDPAKNTVYLQMNSLKMDDTAVYYCAASYGSNWSTLRHQRRNEYDAWGQGTQVAVS chain 2: GPPCPPCPAPEFLGGPSVFLFPPKPKDTLMISRTPEVTCVVVDVSQEDPEVQFNWYVDGVEVHNAKTKPREEQFNSTYRVVSVLTVLHQDWLNGKEYKCKVSNKGLPSSIEKTISKAKGQPREPQVCTLPPSQEEMTKNQVSLSCAVKGFYPSDIAVEWESNGQPENNYKTTPPVLDSDGSFFLVSRLTVDKSRWQEGNVFSCSVMHEALHNHYTQKSLSLSLGKGGGGSGGGGSEVQLLESGGGLVQPGGSLRLSCAASGFRFGNYDMAWVRQAPGKRYEWVSSIDTGGDITHYADSVKGRFTISRDNAKNTLYLQMNSLRPEDTAEYWCATDEEYALGPNEFDYYGQGTLVTVS | 2.7 | > 95
3 | CIgG4B1A2(G4S)1 (Fc fusion) chain 1: GPPCPPCPAPEFLGGPSVFLFPPKPKDTLMISRTPEVTCVVVDVSQEDPEVQFNWYVDGVEVHNAKTKPREEQFNSTYRVVSVLTVLHQDWLNGKEYKCKVSNKGLPSSIEKTISKAKGQPREPQVYTLPPCQEEMTKNQVSLWCLVKGFYPSDIAVEWESNGQPENNYKTTPPVLDSDGSFFLYSRLTVDKSRWQEGNVFSCSVMHEALHNHYTQKSLSLSLGKGGGGSQVQLQESGGGLVQTGGSLRLSCAVHGRTFSNTGMGWFRQAPGNERQFVAIISPSGTSTYYADSVKGRFTISRDPAKNTVYLQMNSLKMDDTAVYYCAASYGSNWSTLRHQRRNEYDAWGQGTQVAVS chain 2: GPPCPPCPAPEFLGGPSVFLFPPKPKDTLMISRTPEVTCVVVDVSQEDPEVQFNWYVDGVEVHNAKTKPREEQFNSTYRVVSVLTVLHQDWLNGKEYKCKVSNKGLPSSIEKTISKAKGQPREPQVCTLPPSQEEMTKNQVSLSCAVKGFYPSDIAVEWESNGQPENNYKTTPPVLDSDGSFFLVSRLTVDKSRWQEGNVFSCSVMHEALHNHYTQKSLSLSLGKGGGGSEVQLLESGGGLVQPGGSLRLSCAASGFRFGNYDMAWVRQAPGKRYEWVSSIDTGGDITHYADSVKGRFTISRDNAKNTLYLQMNSLRPEDTAEYWCATDEEYALGPNEFDYYGQGTLVTVS | 3 | > 95
4 | CIgG4B1A2(G4S)3 (Fc fusion) chain 1: GPPCPPCPAPEFLGGPSVFLFPPKPKDTLMISRTPEVTCVVVDVSQEDPEVQFNWYVDGVEVHNAKTKPREEQFNSTYRVVSVLTVLHQDWLNGKEYKCKVSNKGLPSSIEKTISKAKGQPREPQVYTLPPCQEEMTKNQVSLWCLVKGFYPSDIAVEWESNGQPENNYKTTPPVLDSDGSFFLYSRLTVDKSRWQEGNVFSCSVMHEALHNHYTQKSLSLSLGKGGGGSGGGGSGGGGSQVQLQESGGGLVQTGGSLRLSCAVHGRTFSNTGMGWFRQAPGNERQFVAIISPSGTSTYYADSVKGRFTISRDPAKNTVYLQMNSLKMDDTAVYYCAASYGSNWSTLRHQRRNEYDAWGQGTQVAVS chain 2: GPPCPPCPAPEFLGGPSVFLFPPKPKDTLMISRTPEVTCVVVDVSQEDPEVQFNWYVDGVEVHNAKTKPREEQFNSTYRVVSVLTVLHQDWLNGKEYKCKVSNKGLPSSIEKTISKAKGQPREPQVCTLPPSQEEMTKNQVSLSCAVKGFYPSDIAVEWESNGQPENNYKTTPPVLDSDGSFFLVSRLTVDKSRWQEGNVFSCSVMHEALHNHYTQKSLSLSLGKGGGGSGGGGSGGGGSEVQLLESGGGLVQPGGSLRLSCAASGFRFGNYDMAWVRQAPGKRYEWVSSIDTGGDITHYADSVKGRFTISRDNAKNTLYLQMNSLRPEDTAEYWCATDEEYALGPNEFDYYGQGTLVTVS | 2.5 | > 95

Further lines, results first:

Row | EC50 [nM] | Max effect [%] | Binder
5 |  | > 95 | NIgG4B2A1(RS) (Fc fusion) chain 1: QVQLVESGGGLVQAGGSLRLSCAVFGSTFSNNVADWYRQAPGKQRELVARISASGATREYGDSVKGRFTISRDDAKNTMYLQMNNLKPEDTAVYRCHKIEWEDLSRKDYWGQGTQVTVSRSGPPCPPCPAPEFLGGPSVFLFPPKPKDTLMISRTPEVTCVVVDVSQEDPEVQFNWYVDGVEVHNAKTKPREEQFNSTYRVVSVLTVLHQDWLNGKEYKCKVSNKGLPSSIEKTISKAKGQPREPQVYTLPPCQEEMTKNQVSLWCLVKGFYPSDIAVEWESNGQPENNYKTTPPVLDSDGSFFLYSRLTVDKSRWQEGNVFSCSVMHEALHNHYTQKSLSLSLGK chain 2: EVQLLESGGGLVQPGGSLRLSCAASGFTFGNYDMAWVRQAPGKRPEWVSSIDTGGDITHYADSVKGRFTISRDNAKNTLYLQMNSLRPEDTAVYWCATDEEYALGPNEFDYYGQGTLVTVSSRSGPPCPPCPAPEFLGGPSVFLFPPKPKDTLMISRTPEVTCVVVDVSQEDPEVQFNWYVDGVEVHNAKTKPREEQFNSTYRVVSVLTVLHQDWLNGKEYKCKVSNKGLPSSIEKTISKAKGQPREPQVCTLPPSQEEMTKNQVSLSCAVKGFYPSDIAVEWESNGQPENNYKTTPPVLDSDGSFFLVSRLTVDKSRWQEGNVFSCSVMHEALHNHYTQKSLSLSLGK
6 |  | > 95 | NIgG4B1A2(G4S)2 (Fc fusion) chain 1: QVQLQESGGGLVQTGGSLRLSCAVHGRTFSNTGMGWFRQAPGNERQFVAIISPSGTSTYYADSVKGRFTISRDPAKNTVYLQMNSLKMDDTAVYYCAASYGSNWSTLRHQRRNEYDAWGQGTQVAVSGGGGSGGGGSGPPCPPCPAPEFLGGPSVFLFPPKPKDTLMISRTPEVTCVVVDVSQEDPEVQFNWYVDGVEVHNAKTKPREEQFNSTYRVVSVLTVLHQDWLNGKEYKCKVSNKGLPSSIEKTISKAKGQPREPQVYTLPPCQEEMTKNQVSLWCLVKGFYPSDIAVEWESNGQPENNYKTTPPVLDSDGSFFLYSRLTVDKSRWQEGNVFSCSVMHEALHNHYTQKSLSLSLGK chain 2: EVQLLESGGGLVQPGGSLRLSCAASGFRFGNYDMAWVRQAPGKRYEWVSSIDTGGDITHYADSVKGRFTISRDNAKNTLYLQMNSLRPEDTAEYWCATDEEYALGPNEFDYYGQGTLVTVSGGGGSGGGGSGPPCPPCPAPEFLGGPSVFLFPPKPKDTLMISRTPEVTCVVVDVSQEDPEVQFNWYVDGVEVHNAKTKPREEQFNSTYRVVSVLTVLHQDWLNGKEYKCKVSNKGLPSSIEKTISKAKGQPREPQVCTLPPSQEEMTKNQVSLSCAVKGFYPSDIAVEWESNGQPENNYKTTPPVLDSDGSFFLVSRLTVDKSRWQEGNVFSCSVMHEALHNHYTQKSLSLSLGK
7 |  | > 95 | NIgG4B1A2(G4S)3 (Fc fusion) chain 1: QVQLQESGGGLVQTGGSLRLSCAVHGRTFSNTGMGWFRQAPGNERQFVAIISPSGTSTYYADSVKGRFTISRDPAKNTVYLQMNSLKMDDTAVYYCAASYGSNWSTLRHQRRNEYDAWGQGTQVAVSGGGGSGGGGSGGGGSGPPCPPCPAPEFLGGPSVFLFPPKPKDTLMISRTPEVTCVVVDVSQEDPEVQFNWYVDGVEVHNAKTKPREEQFNSTYRVVSVLTVLHQDWLNGKEYKCKVSNKGLPSSIEKTISKAKGQPREPQVYTLPPCQEEMTKNQVSLWCLVKGFYPSDIAVEWESNGQPENNYKTTPPVLDSDGSFFLYSRLTVDKSRWQEGNVFSCSVMHEALHNHYTQKSLSLSLGK chain 2: EVQLLESGGGLVQPGGSLRLSCAASGFRFGNYDMAWVRQAPGKRYEWVSSIDTGGDITHYADSVKGRFTISRDNAKNTLYLQMNSLRPEDTAEYWCATDEEYALGPNEFDYYGQGTLVTVSGGGGSGGGGSGGGGSGPPCPPCPAPEFLGGPSVFLFPPKPKDTLMISRTPEVTCVVVDVSQEDPEVQFNWYVDGVEVHNAKTKPREEQFNSTYRVVSVLTVLHQDWLNGKEYKCKVSNKGLPSSIEKTISKAKGQPREPQVCTLPPSQEEMTKNQVSLSCAVKGFYPSDIAVEWESNGQPENNYKTTPPVLDSDGSFFLVSRLTVDKSRWQEGNVFSCSVMHEALHNHYTQKSLSLSLGK
8 |  | > 95 | NIgG4B1A2(G4S)1 (Fc fusion) chain 1: QVQLQESGGGLVQTGGSLRLSCAVHGRTFSNTGMGWFRQAPGNERQFVAIISPSGTSTYYADSVKGRFTISRDPAKNTVYLQMNSLKMDDTAVYYCAASYGSNWSTLRHQRRNEYDAWGQGTQVAVSGGGGSGPPCPPCPAPEFLGGPSVFLFPPKPKDTLMISRTPEVTCVVVDVSQEDPEVQFNWYVDGVEVHNAKTKPREEQFNSTYRVVSVLTVLHQDWLNGKEYKCKVSNKGLPSSIEKTISKAKGQPREPQVYTLPPCQEEMTKNQVSLWCLVKGFYPSDIAVEWESNGQPENNYKTTPPVLDSDGSFFLYSRLTVDKSRWQEGNVFSCSVMHEALHNHYTQKSLSLSLGK chain 2: EVQLLESGGGLVQPGGSLRLSCAASGFRFGNYDMAWVRQAPGKRYEWVSSIDTGGDITHYADSVKGRFTISRDNAKNTLYLQMNSLRPEDTAEYWCATDEEYALGPNEFDYYGQGTLVTVSGGGGSGPPCPPCPAPEFLGGPSVFLFPPKPKDTLMISRTPEVTCVVVDVSQEDPEVQFNWYVDGVEVHNAKTKPREEQFNSTYRVVSVLTVLHQDWLNGKEYKCKVSNKGLPSSIEKTISKAKGQPREPQVCTLPPSQEEMTKNQVSLSCAVKGFYPSDIAVEWESNGQPENNYKTTPPVLDSDGSFFLVSRLTVDKSRWQEGNVFSCSVMHEALHNHYTQKSLSLSLGK
